Molecular target: T1, hPCSK9 (Homo sapiens, UniProt Q8NBP7)
T1 construct: purchased Sino Biologicals, China; host or cells: injected into BalBC or NMRI mice
Test: hPCSK9 challenge model, hepatic LDL-R expression in mice (Western Blot)
Assay type: in vivo, mouse
Conditions: inhibitor 22 nmol/kg, hPCSK9 0.4 mg/kg i.v., healthy control = 100%, hPCSK9 alone = 0%
Procedure: The aim of this study was to show the change in the LDL receptor expression level in mouse liver in response to inhibiting the action of intravenously injected hPCSK9 with an anti-PCSK9 peptide.
Healthy male BalBC or NMRI mice (Charles River, Germany) are injected with an anti-PCSK9 peptide, either s.c. or i.v. 15-120 minutes before injecting hPCSK9 (Sino Biologicals, China) intravenously in the tail vein at a dose of 0.4 mg/kg. Sixty minutes after the injection of hPCSK9, the animals are anaesthetised in isoflurane and euthanised by cervical dislocation. The liver is then quickly excised and snapfrozen in liquid nitrogen. The livers are kept at −80 degrees celsius until analysis.
Equal protein transfer was confirmed by Ponceau S (Sigma, P7170) staining of the membranes and the membranes were further blocked in blocking buffer (TBS-T, 2% Tween). […] Quantitative analysis of chemiluminescent signals from Western blots was done with MultiGauge software (Fujifilm).
“Vehicle-vehicle” is the group of healthy controls (baseline level), “vehicle-hPCSK9” is the group injected with hPCSK9 alone.
In Table 8, data are presented as percentage change in relation to the window between baseline level in healthy control animals (set to 100%) and the level after down regulation by hPCSK9 alone (set to 0%).

T1 sequence (Q8NBP7 153-692): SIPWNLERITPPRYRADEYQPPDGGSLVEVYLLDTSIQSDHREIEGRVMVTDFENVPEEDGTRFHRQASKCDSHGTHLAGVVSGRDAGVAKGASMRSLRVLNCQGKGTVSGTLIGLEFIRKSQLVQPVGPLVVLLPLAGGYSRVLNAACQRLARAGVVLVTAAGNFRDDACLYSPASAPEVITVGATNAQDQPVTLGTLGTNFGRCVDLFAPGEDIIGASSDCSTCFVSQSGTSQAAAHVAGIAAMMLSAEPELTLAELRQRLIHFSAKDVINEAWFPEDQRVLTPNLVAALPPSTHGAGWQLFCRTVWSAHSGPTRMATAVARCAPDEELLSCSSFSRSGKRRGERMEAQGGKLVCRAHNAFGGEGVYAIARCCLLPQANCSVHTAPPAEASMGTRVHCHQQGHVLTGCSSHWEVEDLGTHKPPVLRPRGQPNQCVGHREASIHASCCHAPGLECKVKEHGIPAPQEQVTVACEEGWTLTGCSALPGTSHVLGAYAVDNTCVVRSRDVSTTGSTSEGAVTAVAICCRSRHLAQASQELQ

- Percentage of baseline (hepatic LDL-R expression): 157%
Substance: Alirocumab: anti-PCSK9 antibody, control molecule in the hPCSK9 challenge model

Source: patent publication US10822385B2, “EGF(A) analogues with fatty acid substituents” (Novo Nordisk A/S, priority 2016, dated 2020)
